Reference: PMC9369050
Several values for one entry are separate records, joined by “and”; a condition that tells them apart may be missing. Identical values can stand only once.

Experiments:
[1] = biological target: Bacterial His-tagged Reg-1α (human regenerating islet-derived protein 1-alpha) (human) (UniProt P05451); test: cross-linking; 10 mM EDC/NHS, up to 30 min (0, 15, 30 min); Reg-1α with inactive calpain-2 at molar ratio 2/1, or Reg-1α alone; 50 mM Hepes pH 7.3, 100 mM NaCl, 1 mM DTT, 1 mM EGTA; SDS-PAGE 4-15% and immunodetection with anti-Reg-1α and anti-calpain-2
[2] = biological target: Bacterial His-tagged Reg-1α (human regenerating islet-derived protein 1-alpha) (human) (UniProt P05451); test: SDS-PAGE with immunoblot, no cross-linker; bands of oligomers that persist in SDS-PAGE, detected with anti-Reg-1α (Figure 1C; time 0 of Figure 2A)
[3] = biological target: Calpain-2-cleaved Reg-1α (Reg-1αΔN1-4) (human); test: as above

## Bacterial His-tagged Reg-1α (human regenerating islet-derived protein 1-alpha) (from UniProt P05451 23-166) (natural protein)
[1]
  stoichiometry N: 4
[2]
  stoichiometry N: 2 and 3

## Calpain-2-cleaved Reg-1α (Reg-1αΔN1-4) (domain or fragment)
[3]
  stoichiometry N: 2
